Laboratory results published in patent US20210253718A1 (MODMAB THERAPEUTICS, published 2021).
Residue numbers refer to the chain shown, from its start.

T1: FZD3 cysteine-rich domain (CRD), MYC-tagged and GPI-anchored on CHO cells (human, UniProt Q9NPG1 24-150, GPI anchor)
T1 construct: domain: cysteine-rich domain (CRD); also called FZD3 CRD; CHO-myc-FZDGPI; not shown: MYC tag and GPI anchor signal
T1 sequence (looked up): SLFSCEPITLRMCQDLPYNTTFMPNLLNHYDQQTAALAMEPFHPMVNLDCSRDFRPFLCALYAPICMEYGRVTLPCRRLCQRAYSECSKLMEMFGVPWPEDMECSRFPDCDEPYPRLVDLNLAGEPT

T2: FZD4 cysteine-rich domain (CRD), MYC-tagged and GPI-anchored on CHO cells (human, UniProt Q9ULV1 42-167, GPI anchor)
T2 construct: also called FZD4 CRD; CHO-myc-FZDGPI; not shown: MYC tag and GPI anchor signal
T2 sequence: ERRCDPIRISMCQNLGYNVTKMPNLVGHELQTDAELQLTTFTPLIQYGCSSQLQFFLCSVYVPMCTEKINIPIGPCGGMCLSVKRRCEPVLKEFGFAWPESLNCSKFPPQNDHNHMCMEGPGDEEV

T3: FZD5 cysteine-rich domain (CRD), MYC-tagged and GPI-anchored on CHO cells (human, UniProt Q13467 29-156, GPI anchor)
T3 construct: also called FZD5 CRD; CHO-myc-FZDGPI; not shown: MYC tag and GPI anchor signal
T3 sequence: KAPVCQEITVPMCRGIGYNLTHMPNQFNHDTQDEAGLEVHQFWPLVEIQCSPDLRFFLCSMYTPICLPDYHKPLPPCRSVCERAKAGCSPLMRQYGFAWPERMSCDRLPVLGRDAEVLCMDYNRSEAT

T4: FZD6 cysteine-rich domain (CRD), MYC-tagged and GPI-anchored on CHO cells (human, UniProt O60353 20-146, GPI anchor)
T4 construct: also called FZD6 CRD; CHO-myc-FZDGPI; not shown: MYC tag and GPI anchor signal
T4 sequence: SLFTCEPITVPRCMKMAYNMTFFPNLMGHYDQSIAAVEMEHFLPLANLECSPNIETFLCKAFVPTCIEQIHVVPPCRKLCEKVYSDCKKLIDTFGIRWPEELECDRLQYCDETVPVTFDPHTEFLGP

T5: FZD8 cysteine-rich domain (CRD), MYC-tagged and GPI-anchored on CHO cells (human, UniProt Q498S8 31-155 (rat entry), GPI anchor)
T5 construct: also called FZD8 CRD; CHO-myc-FZDGPI; not shown: MYC tag and GPI anchor signal
T5 sequence: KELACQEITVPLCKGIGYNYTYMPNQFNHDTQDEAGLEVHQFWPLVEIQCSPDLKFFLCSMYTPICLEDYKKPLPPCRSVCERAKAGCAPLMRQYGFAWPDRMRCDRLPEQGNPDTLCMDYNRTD

T6: FZD9 cysteine-rich domain (CRD), MYC-tagged and GPI-anchored on CHO cells (human, UniProt O00144 35-161, GPI anchor)
T6 construct: also called FZD9 CRD; CHO-myc-FZDGPI; not shown: MYC tag and GPI anchor signal
T6 sequence: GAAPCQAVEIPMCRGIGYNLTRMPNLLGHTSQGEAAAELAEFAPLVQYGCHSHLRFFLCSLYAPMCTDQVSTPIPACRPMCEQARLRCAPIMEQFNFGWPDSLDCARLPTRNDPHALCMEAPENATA

T7: FZD10 cysteine-rich domain (CRD), MYC-tagged and GPI-anchored on CHO cells (human, UniProt Q9ULW2 30-156, GPI anchor)
T7 construct: also called FZD10 CRD; CHO-myc-FZDGPI; not shown: MYC tag and GPI anchor signal
T7 sequence: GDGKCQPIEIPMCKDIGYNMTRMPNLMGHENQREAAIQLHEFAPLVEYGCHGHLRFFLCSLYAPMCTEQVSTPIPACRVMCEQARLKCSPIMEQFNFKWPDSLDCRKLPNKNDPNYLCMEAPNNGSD

B1: Fab-2908 (Fab, V domains shown)
VH: EVQLVESGGGLVQPGGSLRLSCAASGFNFSSSSIHWVRQAPGKGLEWVAYIYPSYSYTYYADSVKGRFTISADTSKNTAYLQMNSLRAEDTAVYYCARAYYGHFHAMDYWGQGTLVTVSS
VL: DIQMTQSPSSLSASVGDRVTITCRASQSVSSAVAWYQQKPGKAPKLLIYSASSLYSGVPSRFSGSRSGTDFTLTISSLQPEDFATYYCQQSSYSLITFGQGTKVEIK
notes: Fab; also called Fv-2908
B2: Fab-2911 (Fab, V domains shown)
VH: EVQLVESGGGLVQPGGSLRLSCAASGFNIYYSSMHWVRQAPGKGLEWVAYIYPYSGYTSYADSVKGRFTISADTSKNTAYLQMNSLRAEDTAVYYCARYFWWYGFDYWGQGTLVTVSS
VL: B1 VL with S91G, S92P, Y93W, S94Y, L95P, I96F
notes: Fab; also called Fv-2911

Experiments:
[1] = target: T1, FZD3 cysteine-rich domain (CRD), …; assay: flow cytometry, CHO-CRD cells;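 note: flow cytometry of Fab binding to CHO cells overexpressing a Frizzled CRD, with binding defined as median fluorescence over twice that of CHO cells lacking any Frizzled CRD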
Experimental: (§1) Binding was measured via flow cytometry analysis of CHO cells overexpressing CRD of FZD1, FZD2, FZD3, FZD4, FZD5, FZD6, FZD7, FZD8, FZD9 or FZD10. Median fluorescence values are shown.

[2] = target: T2, FZD4 cysteine-rich domain (CRD), …; assay: flow cytometry, CHO-CRD cells;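 note: flow cytometry of Fab binding to CHO cells overexpressing a Frizzled CRD, with binding defined as median fluorescence over twice that of CHO cells lacking any Frizzled CRD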
Experimental: as §1

[3] = target: T3, FZD5 cysteine-rich domain (CRD), …; assay: flow cytometry, CHO-CRD cells;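 note: flow cytometry of Fab binding to CHO cells overexpressing a Frizzled CRD, with binding defined as median fluorescence over twice that of CHO cells lacking any Frizzled CRD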
Experimental: as §1

[4] = target: T4, FZD6 cysteine-rich domain (CRD), …; assay: flow cytometry, CHO-CRD cells;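 note: flow cytometry of Fab binding to CHO cells overexpressing a Frizzled CRD, with binding defined as median fluorescence over twice that of CHO cells lacking any Frizzled CRD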
Experimental: as §1

[5] = target: T5, FZD8 cysteine-rich domain (CRD), …; assay: flow cytometry, CHO-CRD cells
Experimental: as §1

[6] = target: T6, FZD9 cysteine-rich domain (CRD), …; assay: flow cytometry, CHO-CRD cells
Experimental: as §1

[7] = target: T7, FZD10 cysteine-rich domain (CRD), …; assay: flow cytometry, CHO-CRD cells
Experimental: as §1

[8] = target: T1, FZD3 cysteine-rich domain (CRD), …; assay: immunofluorescence, CHO-CRD cells
[9] = target: T2, FZD4 cysteine-rich domain (CRD), …; assay: immunofluorescence, CHO-CRD cells
[10] = target: T4, FZD6 cysteine-rich domain (CRD), …; assay: immunofluorescence, CHO-CRD cells
[11] = target: T5, FZD8 cysteine-rich domain (CRD), …; assay: immunofluorescence, CHO-CRD cells
[12] = target: T6, FZD9 cysteine-rich domain (CRD), …; assay: immunofluorescence, CHO-CRD cells
[13] = target: T7, FZD10 cysteine-rich domain (CRD), …; assay: immunofluorescence, CHO-CRD cells
[14] = target: FZD1 cysteine-rich domain (CRD), MYC-tagged and GPI-anchored on CHO cells (human); assay: flow cytometry, CHO-CRD cells
Experimental: as §1

[15] = target: FZD2 cysteine-rich domain (CRD), MYC-tagged and GPI-anchored on CHO cells (human, UniProt Q14332 35-161); assay: flow cytometry, CHO-CRD cells
Experimental: as §1

[16] = target: FZD7 cysteine-rich domain (CRD), MYC-tagged and GPI-anchored on CHO cells (human, UniProt O75084 45-169); assay: flow cytometry, CHO-CRD cells
Experimental: as §1

| Binder | median fluorescence [1] | median fluorescence [2] | median fluorescence [3] | median fluorescence [4] | median fluorescence [5] | median fluorescence [6] | median fluorescence [7] | binding result [8] | binding result [9] | binding result [10] | binding result [11] | binding result [12] | binding result [13] | median fluorescence [14] | median fluorescence [15] | median fluorescence [16] |
| --- | --- | --- | --- | --- | --- | --- | --- | --- | --- | --- | --- | --- | --- | --- | --- | --- |
| B1 | 3.22 | 4.57 | 25.5 | 2.89 | 5.52 | 3.13 | 3.08 | no binding | no binding | no binding | no binding | no binding | no binding | – | – | – |
| B2 | 4.96 | 6.21 | 20.5 | 3.68 | 7.43 | 4.1 | 3.96 | no binding | no binding | no binding | no binding | no binding | no binding | 38.2 | 22.7 | 43.3 |
